Molecular target: the molecule itself
Experiment: SEC-MALS; about 10 mg/ml applied to Superdex 200 Increase 10/300 in PBS; DAWN HELEOS and Optilab T-rEX detectors

B1: Recombinant MISHA/FAM136A (sample of the SEC-MALS analysis) (natural protein)
chain: not shown
notes: human FAM136A/MISHA, Uniprot Q96C01, printed as 138 amino acids (the whole entry); tag removed before the assay; Applied at about 10 mg/ml; also called Mitochondrial-IMS membrane-SHApe-impacting protein; source: E. coli SHuffle, purified; tag cleaved in both
stoichiometry N: 2

— publication doi:10.1101/2025.11.15.688601, “A multiplexed approach for genetic screening of human cells by electron microscopy uncovers a critical effector of mitochondrial cristae shape” (bioRxiv, 2025)
